# Experimental data as given in the nanobody polyreactivity screen of Harvey et al. (2022).
# Assay: yeast display, Sf9 membrane polyspecificity reagent, FACS + sequencing; frameworks hold sequencing errors
# Outline: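 Sorting gates, low and high (top ~1%), were placed on anti-HA fluorescence to track expression and on streptavidin fluorescence to track reagent binding. A clone's polyreactivity label is taken from the gate it came out of. The reagent was 10% biotinylated, detergent-solubilized Sf9 membrane, applied for 1 hour at 4 °C to galactose-induced yeast display cells.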
row,Sequence,polyreactivity (PSR sort gate)
1,QVQLVESGGVLVQAGGSLRLSCAASGSIFYYNAMGWYRQAPGKERELVATITGGNGTYYADSVKGRFTISRDNAKNTVYLQMNSLKPEVTAVYYCARDTDPQSSRSSDYDYWGQGTQVTVSS,low polyreactivity
2,QVQLVESGGGLVQAGGSLRLSCAASGRIFVTNTMGWYRQAPGKERELVAAIDNSAGSTYYADSVKGRFTISRDNAKNTVYLQMNSLKPEDTAVYYCAADYPPYYGYGYWGQGTQVTVSS,low polyreactivity
3,QVQLVESGGGLVQAGGSLRLSCAASGILSNYYAMGWYRQAPGKERELVASIRLSGGRTYYADSVKGRFTISRDNAKNTVYLQMNSLKPEDTAVYYCAAGTRRTYSKFDYWGQGTQVTVSS,high polyreactivity
4,QVQLVESGGGLVQAGGSLRLSCAASGFTFRGNAMGWYRQAPGKERELVAAITSSDDSTYYADSVKGRFTISRDNAKNTVYLQMNSLKPEDTAVYYCAAVANGYWTYEYWGQGTQVTVSS,low polyreactivity
5,QDQLVDSGGGLVQAGGRLRLSCAASGSTYRTYAMVRYRQAPGKERELVAAINSGGSTYYADSVKGRFTISRDNAKNTVYLQMNSLKPEDTAVYSCAREDYVSYRLLYYLFDYWGQGTQVTVSS,low polyreactivity
6,QVQLVESGGGLVQAGGSLRLSCAASGITFGRYVMGWYRQAPGKERELVATISSGGRTKYADSVKGRFSISRDNAKNTVYLQMNSLKPEDTAGYYCNAESPKWPWYSGFDYWGQGTQVTVSS,high polyreactivity
7,QVQLVESGGGLVQAGGSLRLSCAASGRTFSTNDMGWYRQAPGKERELVAAIDFDSDSTYYADSVKGRFTISRDNAKNTVYLQMNSMKPEDTAVYYCAAQYFSYGESYEYWGQGTQVTVSS,low polyreactivity
8,QVQLEESGGGLVQAGGSLRLSCAASGRILSLYAMGRYRQAPGKERELVAAIRWSGSRTYYADSVKGRFTISRDNAKNTVYLQMNSLKPEDTAVYYCAAESHYPHKPGSDYWGQGTQVTVSS,high polyreactivity
9,QVQLVESGGGLVQAGGSLRLSCAASGRNFLIYAMGWYRQAPRKERELVADISTSGGTTYYADSVKGRFTISRDNAKNTVYLQMNSLKPADTAVYYCAAGSHYWKYYSWGQGTQVTVSS,high polyreactivity
10,QVQLVESGGGLVQAGGSLRLSCAASGSIFQYYPMGWYRQAPGKERELVAAINSGGRTNYADSVKGRFTISRDNAKNTVYLQMNSLKPEDTAVYYCAKRLSTRASFGEEDSWGQGTQVTVSS,low polyreactivity
11,QVQLVESGGRLVQSGGSLRLSCAASGRTIVENAMGLYRQAPGKEREFVAAISYKGGSTYYADSVKGRFTISRDNAKNTVYFQMNSLNPEDTAVYYCAADPNYGYDYWGQGTQVTVST,low polyreactivity
12,QVQLVESGGGLVQAGGSLRLSCAASGFILSDNAMGWYRQAPGKEREFVAAITSSGGSTHYADSVKGRFTISRDNAKNTVYLQMNSLKPEDTAVYYCNTYPYLWGQGTQVTVSS,low polyreactivity
13,KVQLVESGGGLVQAGGSLRLSCAATGRIFRPKAMGCYIQAPGKEREMVAAIRSTVGSTFYEYSVKGRFSISRDNAKNTVYLEMNRLKREDTAVYYCAGGTSRQFYYWGQGTQVTVSS,low polyreactivity
14,QVQLVESGGGLVQAGGSLRLSCAASGGTFEYYPMGWYRQAPGKETEMVAGITWGGVSTYYADSVKGRFTLSRDTAKNTVYLQMNSLKPEDTSVFYCAAAYSQDNVWWYYYWGQGTQVTVSS,high polyreactivity
15,QVQLRESGAGGRQPAPELRGERQYFYWSADGLVSQAPGKEREFVAGIDRGTITNYADSVRGRFTISRDNAKKTVYLQMNSLKPEDTAVYYCAVPAYGDPSSYYWGQGTHVTVSS,high polyreactivity
16,QVQLVESGGGLVQAGGSLRLSCAASGRIFYHNARGWYRQAPGKERELVAAIYSTGGSTYYADSVKGRFTISRDNAKNTVYLQMNSLKPEDTAVYYCATQYFRKYGYDYWGKGTQVTVSS,low polyreactivity
17,QVQLVESGGGLVQAGGSLRISCAASGSTFYRYPMAWYRQAPGKERELVAAISGSGGRTYYADSVKGRFTISRDNAKNTVYLQMNSLKPEYTAVYYCATRFGQRSDYWGQGTQVTVSS,high polyreactivity
18,QVQLVESGGGLVQAGGSLRLSCAASGRTFYFNAMGWYRQAPGKERELVAAISGGGRTYYADSVKGRFTISRDNAKNTVYLQMNSLKPEDTAVYYCNVRRWYTYPLEKSNYWGQGTQVTVSS,high polyreactivity
19,QVQLVESGGGLVQAGGSLRLICAASGSTFGRNAMGWSRQAPGKERELVAAISSGGRTYYADSVKGRFTSSRDNAKHTVYVQLNSLKPEDSAVYYCARDDYGTLVKLYVRGFNYWGQGTQVTVSS,low polyreactivity
20,QVQLVESGGGLVQAGGSLRLSCAASGFIFGYYAMGCYTQAPGKERELVARSTSSGGSTYYADSVKGRFTISRDNAKTTVYLQMNSLKPEDTAVYYCAKSPRAPRYMPYGYWGQGSQVTVSS,high polyreactivity
21,QVQHVESGGGLVQAGGSLRLSCAASGFIFTHYTMGWSRQAPGKESELVAVISSAGSTYYADSVKGRFTISRDNAKNTVYLQMNSLKPEDTAVYYCNKVVRQVHGRGLDYWGQGTQVTVSS,high polyreactivity

row,Sequence,polyreactivity (PSR sort gate)
1,QVQLVESGGGLVQAGGSLRLSCAASGLTFSRYAMGWYRQAPGKERELVAAISRRGGITYYADSVKGRFTISRDNAKNTVYLQMNSLKPEDTAVYYCNKDYGGELDYWGQGTQVSVSS,high polyreactivity
2,QVQLQESGGGLVQAGGSLRLSCAASGNISSYYRMGSYRQAPGKEREFVATIAVGGTTNYADSVKGRFTISRDNAKNTVYLQMNSLKPEDTAVCFCAANSTQYTWFDYWGQGTQVPVSS,low polyreactivity
3,QVQLVESGGGLVQAGGCLRLSCAASGFIFYVNAMGWYRLAPGKERELVAAISSSGTRTYYADSVKGRFTISRDNAKNTVYLQMNSLKPEDTAVYYCNAAQSVELGYDYWGQGTQVTVSS,high polyreactivity
4,QVQLVESGGGLVQAGGSLRLSCAASGFTFGYYAMGWYRQAPGKERELVAAITYDGDITYYADSVKGRFTISRDNAKNTVYLQMNSLKPEVTAVYYCNRDVLTFNYDYWGQGTQVTVSS,low polyreactivity
5,QVQLVESGGGLVQAGGSLRLSCAASRSTFNYYTMGWYRQAPGKERELVAAISRGGSTYYADSVKGRFTISRDNAKNTVYLQMNSLKPEDTAVYYCAATVYPRYFRKYDYWGQGTQVTVSS,high polyreactivity
6,QVQRVETGGGLFQAGGSLRLSCAASGRTFGPYAMGWYIQAPGKERELVAAIRYIDDSTFYADSVKGRFTISRDNAKNTVYVQMNSLKPEDTAVYYCAAQRRVVGRHGLSLIRYDYWGQGTQVTVSS,low polyreactivity
7,QLQLVESGGVLVQAGASLRLSCAATVSTFIYYAMGWYRQAPGKEREVVAAISKRGGNTYYADSVKGRFTISRDNAKNTVYLQMNSLKPEDTAVYYCAARVYGTSRRYYSWGQGTQVTVSS,high polyreactivity
8,QVQLVESGGGLVQAGCSLRLSCAASGRSIAYNAMGWYRQAPGTERELVAAISWSGGSTYYADSVKGRFTISRDNAKNTVYLQMNSLIPEDTAVYYCAKRFAQYRYPYDYWGQGKQVTVSS,high polyreactivity
9,QVQLVESGGGLVQAGGSLRLSCAASGITCTFNTMGWYRQAPGKERELVAGITNGGSTYYADSVKGRFTISRDNAKNTVYLQMNSLKPEDTAVYYCNAQRRLRYGWFGPYDYWGQGTQVTVSS,low polyreactivity
10,QVQLVESGGGLVQAGRSLRLSCAASGFTFAYYAMGWYRQAPGKERELVAAISRGGTSTYYADSVKGRFTISRDNAKNTVYLQMNSLKPEDTAVYYCNAVKVGYSLYDYWGQGTQVTVSS,high polyreactivity
11,QVQLVESGGRLVQAGGSLRLSCAASGSIFSGYTMGWYRQAPGKERELVAAISSDGSTTYADSVKGRFTISRDNAKNTVYLQLNSLKPEDSAVYYSAAYPYWDGSYGGYDYWGQGTQVTVSS,low polyreactivity
12,QVQLVESGGGLVQAGGSLRLSCAASGSIFIYYAMGWYRQAPGKERELVAAISWSGGDTYYADSVKGRFTISRDNAKNTVYLQMNSLKPEDTAVYYCNADYDPYYPYTAWDTVLTHDEYWGQGTQVTVSS,low polyreactivity
13,QVHLVESWGGLVQAGGSLRLSCAASGRTFWKYAMGWYRQAPWKDRVLVAAITASGARTYYADSVKGRFSISRDNGKNTVYLQMNSLKPEDTSVYYCNAGSVSDRQMDYWGQGTQVTVSS,low polyreactivity
14,QVQLVESGGGLVQAGGSLRLSCAASGGIFDSYAMGWYRQAPGKERELVAAISRSGSTNYADSVKGRFTISRDNAKNTVYLQMYSLKPEDTAVYYCAASVRGIRYDYWGQGTQVTVSS,low polyreactivity
15,QVQLVESGGGLVQAGGSLRLSCAASGITFARYAMGLYIQAPGKERELVAAISKRGGRKYYADSVKGRFTISRDNAKNTVYLQMNSLKPEDTAVYYCATDYYVSTDYNLWGQGTQVTVSS,high polyreactivity
16,QVQLVESGGGLVQAGGSLRLSCAASGSIFHSYAMGWYRQAPGKERELVAGITSSCDRTNYADSVKGRFTISRDNAKITVYLQMNSLKPEDNAVYYCAAVARYPKGRTRRGYGYWGQGTQVTVSS,high polyreactivity
17,QVQLVESGGGLVQAGGSLRLSCAASGSTFYRFAMGWYRTAPGKERELVAAISRSGGSTYYADTVKGRFTISRDNAKNTVYLQMNSLKPEDTAVYYCAAQYTFYYRSWSDYWGQGTQVTVSS,high polyreactivity
18,QVQLVESGGGLVQAGGSLRLSCAASGSTFWPYAMGWYRQAPGKERELVAAITSSDVNTNYADSVKGRFTISRDNAKNTVYLQMNSLKPEDTAVYYCAADQYQYDPTYGYDYWGQGTQVTVSS,low polyreactivity
19,QVQLVESGGGLVQAGGSLRLSCAASGSTFYIYAMGWYRQAPGKERELVARISGSRGSTYYADSVKGRFTISRDNAKNTVYLQMNSLKPEDTAVYYCAADDIYKYYQYYALPSYRYDYWGQGTQVTVSS,low polyreactivity
20,QVQLVESGGGLVQAGVSLRLSCAASGSIFVHYDMGWYRPAPGKERELVADIDYSGGSTYYADSVKGRFTISRDYAKNTVYLQMNSLKPEDTAVYDCAAERRRWGLDYYYWGQGTQVTVSS,high polyreactivity
